Consider 22 variants from the supplement of paper PMC7125110.

± gives the standard error. Fewer inactive variants are shown than the library holds.

First the molecules themselves.
B1: glmS ribozyme (parent)
chain: AUAAAAGCGCCAGAACUACAGAAAUGUAGUUGACGAGGAGGAGGUUUAUCGAAUUUUCGGCGGAUGCCUCCAAA

Common to all, as to details: with glucosamine-6-phosphate
Data set [1] covers variants of B1. Kind of data set: self-cleavage kobs at 640 uM GlcN6P; higher = faster cleavage; RNA array. The method, boiled down: (§1)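 Over ~14 h at 37 °C, tiles were imaged as glucosamine-6-phosphate (40 μM to 10 mM) in HEPES/KCl/Mg(OAc)2 buffer flowed across sequenced MiSeq chips. The chips carried barcoded ribozyme variants transcribed in situ by E. coli RNA polymerase and tracked with a hybridised Cy3 probe. After normalisation to baseline and to non-cleaving reference variants, one- or two-exponential decay fits of per-tile medians gave kobs. kcat and KM followed from weighted Michaelis–Menten fits across concentrations.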

Data set [2] covers variants of B1. Kind of data set: self-cleavage kobs at 10000 uM GlcN6P; higher = faster cleavage; RNA array. The gist of the method:
as §1

Variants of B1 are the subject of data set [3]. In words: self-cleavage kobs at 2500 uM GlcN6P; higher = faster cleavage; RNA array. The gist of the method:
as §1

As to AUAAAAGCGCUAGAACUACAGAAAUGUAGUUGACGAGGAGGAGGUUUAUCGAAUUUUCGGCUGAUGCCUCCAAA [C11U G62U], the “self-cleavage kobs at 640 uM GlcN6P” value in data set [1] was less than 1e-05 s⁻¹. Further, in data set [2], the “self-cleavage kobs at 10000 uM GlcN6P” value is less than 1e-05 s⁻¹.
With AUAAAAGCGCCAGAUCUACAGAAAUGUAGUCGACGAGGAGUAGGUUUAUCGAAUUUUCGGCGGAUGCCUUCAAA [A15U U31C G41U C70U], in data set [1], the “self-cleavage kobs at 640 uM GlcN6P” value came to 3.6e-05 ± 1.4e-05 s⁻¹. Also, the “self-cleavage kobs at 10000 uM GlcN6P” value in data set [2] came to 6.84e-05 ± 1.3e-05 s⁻¹.
With AUAAAAGCGCCAGACCUACAGAAAUGUAGUUGACGAGGAGGAGGUUGAUCGAAUUUUCGGCGGAUUCCUCCAAA [A15C U47G G66U], the “self-cleavage kobs at 640 uM GlcN6P” value in data set [1] was less than 1e-05 s⁻¹.
Same read-out and setting: under AUAAAAGCGCCAGAACUACAGAAAUGUAGUUGACGAGGAGGAGGUUAAUCAAAUUUUCGGCGGAUGCCUCGAAA [U47A G51A C71G] stands 0.0001 ± 3.9e-05 s⁻¹; under AUAAAACCGCCAGAACUACAGAAAUGUAGUUGACGAGGAGUAGGUUUAUCGAAUUUUCGGCGGAUGGCUCCAAA [G7C G41U C67G], less than 1e-05 s⁻¹; under AUAAAAGCGCCAGAACUACAGAAAUGUAGUUGACGAGGAGGAGUUUGAUCGGAUUUUCGGCGGGUGCCUCCAAA [G44U U47G A52G A64G], less than 1e-05 s⁻¹.
Consider AUAAAAGCGCCAGAUCUACAGAAAUGUAGUUGACGAAGAGGAGGUUUAUCGAAUUUUCGGCGGAUGCCUCCAAA [A15U G37A], for which the “self-cleavage kobs at 640 uM GlcN6P” value in data set [1] amounted to 0.000117 ± 2.4e-05 s⁻¹. In data set [3], the “self-cleavage kobs at 2500 uM GlcN6P” value was determined as 0.000103 ± 2.8e-05 s⁻¹. For the same variant, the “self-cleavage kobs at 10000 uM GlcN6P” value in data set [2] was 0.000568 ± 0.00011 s⁻¹.
Consider AUAAAAGCGCCAGAACUACAGAAAUGUAGUUGACGAAGAGGAGGUUUAUCGAAUUGUCGGCGGUUGCCUCCAAA [G37A U56G A64U], for which the “self-cleavage kobs at 640 uM GlcN6P” value in data set [1] was less than 1e-05 s⁻¹. In data set [3], the “self-cleavage kobs at 2500 uM GlcN6P” value was less than 1e-05 s⁻¹.
For the variant AUAAAAGCACAAGAACUACAGAAAUGUAGUUGACGAGGUGAUGGUUUAUAGAAUUUGCGGCGGAUGCCUCCAAA [G9A C11A A39U G41A A42U C50A U57G], the “self-cleavage kobs at 640 uM GlcN6P” value in data set [1] is less than 1e-05 s⁻¹. The “self-cleavage kobs at 2500 uM GlcN6P” value in data set [3] was less than 1e-05 s⁻¹.
Consider AUAAAAGCGCCAGAACUACAGAAAUGUAGUUGACGAGGAGGAGGUUUAUGGAAUUUUCGGCGCAUGUCUCCAAA [C50G G63C C67U], for which, in data set [1], the “self-cleavage kobs at 640 uM GlcN6P” value amounted to 0.000103 ± 4.4e-05 s⁻¹.
Turning to AUAAAAGUGCCAGAACUACAGAAAUGUAGUUGACGAGGAGGUGGUUUAGCGGAUUUGCGGCGGAUGCCUCCAAA [C8U A42U U49G A52G U57G], the “self-cleavage kobs at 640 uM GlcN6P” value in data set [1] is less than 1e-05 s⁻¹. Also, in data set [3], the “self-cleavage kobs at 2500 uM GlcN6P” value is less than 1e-05 s⁻¹.
For AUAAAAAUGCCAGAACUACAGAAAUGUAGUCGACGAGGAGGAGGUUUAUCGCAUUUUCGGCGGAUGCCUCCAAA [G7A C8U U31C A52C], the “self-cleavage kobs at 640 uM GlcN6P” value in data set [1] is less than 1e-05 s⁻¹. The “self-cleavage kobs at 2500 uM GlcN6P” value in data set [3] was less than 1e-05 s⁻¹.
In the case of AUAAAAGCGUCAGAACUACAGAAAUGUAGUUGACGAGGAGGAGGUUUAUCGAAUUUCCGGCGGAUGCCUCCAAA [C10U U57C], the “self-cleavage kobs at 640 uM GlcN6P” value in data set [1] is less than 1e-05 s⁻¹. Besides, the “self-cleavage kobs at 10000 uM GlcN6P” value in data set [2] is less than 1e-05 s⁻¹.
For the variant AUAAAAGCGCCAGAACUACAGAAAUGUAGUUGACGAGGAGGCUGUUUAUCGAAUUUACGGCGGAUGCCUCCAAA [A42C G43U U57A], in data set [1], the “self-cleavage kobs at 640 uM GlcN6P” value is less than 1e-05 s⁻¹. Further, the “self-cleavage kobs at 2500 uM GlcN6P” value in data set [3] is less than 1e-05 s⁻¹. Besides, the “self-cleavage kobs at 10000 uM GlcN6P” value in data set [2] is less than 1e-05 s⁻¹.
For the variant AUAAAAGCGCCAGAAAUACAGAAAUGUAGUUGACGAGGAGGAGGUUUAUCGGAUUUUCGGCGGAUGCCUUCAAA [C16A A52G C70U], the “self-cleavage kobs at 640 uM GlcN6P” value in data set [1] came to 0.00109 ± 0.00029 s⁻¹.
As for AUAAAAGCGCCAGAACUACAGAAAUGUAGUUGACGAGGAGGCGGUUUAUCGAAAUUUCGGCGGACGCCUCCAAA [A42C U54A U65C], the “self-cleavage kobs at 640 uM GlcN6P” value in data set [1] was less than 1e-05 s⁻¹.
For AUAAAAGCGCCGGAACUACAGAAAUGUAAAUGACGAGGAGGAGGGUUAUCGAAUUUUCGGCAGAUGCCUCUAAA [A12G G29A U30A U45G G62A C71U], the “self-cleavage kobs at 640 uM GlcN6P” value in data set [1] is less than 1e-05 s⁻¹. The “self-cleavage kobs at 2500 uM GlcN6P” value in data set [3] was less than 1e-05 s⁻¹.
On to AUAAAAGCGCCAGAACUACAGAAAUGUAGUUGACUAGGAGGAGGUUUAUCGAAUUUCCGGCGGAUGCCUCCAAA [G35U U57C], for which the “self-cleavage kobs at 640 uM GlcN6P” value in data set [1] was less than 1e-05 s⁻¹. In addition, the “self-cleavage kobs at 2500 uM GlcN6P” value in data set [3] is less than 1e-05 s⁻¹.
Regarding AUAAAAACGCCCGAACUACAGAAAUGUAGUUGACGAGGAGGAGGUUUACCGAAUUUUCGGCAGAUGCCUCCAAA [G7A A12C U49C G62A], in data set [1], the “self-cleavage kobs at 640 uM GlcN6P” value was less than 1e-05 s⁻¹. Further, the “self-cleavage kobs at 2500 uM GlcN6P” value in data set [3] was less than 1e-05 s⁻¹.
On to AUAAAAGCGCCAGAACUACAGAAAUGUAGUUGACCAGGAGUAGGUUUAUCGAAUUUUCGGCGGGUGCCUCCAAA [G35C G41U A64G], for which, in data set [1], the “self-cleavage kobs at 640 uM GlcN6P” value was less than 1e-05 s⁻¹.
The same measure, in the same setting: then AUAAAAGCGCCAGAACUACAGAAAUGUAGUUGACGAGGAGGAGCUUUAUGGAAUUUUCGGCUGAUGCCUCCAAA [G44C C50G G62U], with less than 1e-05 s⁻¹.
Turning to AUAAAAGCGCCAAAACUACAGAAAUGUAGUUGACGAGGAGGAGGUUUAUCGACUUUUCGGCGGAUGCCUCCAAA [G13A A53C], in data set [1], the “self-cleavage kobs at 640 uM GlcN6P” value worked out at 4.8e-05 ± 1.4e-05 s⁻¹. Also, the “self-cleavage kobs at 2500 uM GlcN6P” value in data set [3] was found to be 3.79e-05 ± 1.2e-05 s⁻¹. In data set [2], the “self-cleavage kobs at 10000 uM GlcN6P” value turned out to be 0.000139 ± 1.3e-05 s⁻¹.
